Laboratory results published in article PMC8464039 (Nucleic Acids Research, 2021).
Where a chain is given by its changes, count along the chain named.

B1: dsDNANS (non-specific, 54 bp) (dsDNA)
DNA 1: GAGCGACTACGACATGAGCGCGCAGCTAAGACCGCCCGTAGATGCGTCGAGCGT
DNA 2: ACGCTCGACGCATCTACGGGCGGTCTTAGCTGCGCGCTCATGTCGTAGTCGCTC
B2: dsDNANS unlabeled (dsDNA)
DNA 1: B1 DNA 1
DNA 2: B1 DNA 2
B3: dsDNASP (specific target, 54 bp) (dsDNA)
DNA 1: GGAAGCCATCCAGGTAGACGCGGACATCAAGCCCGCCGTGAAGGTGCAGCTGCT
DNA 2: AGCAGCTGCACCTTCACGGCGGGCTTGATGTCCGCGTCTACCTGGATGGCTTCC
B4: Cas7f subunit of the Csy complex (natural protein, P. aeruginosa)
chain: MSKPILSTASVLAFERKLDPSDALMSAGAWAQRDASQEWPAVTVREKSVRGTISNRLKTKDRDPAKLDASIQSPNLQTVDVANLPSDADTLKVRFTLRVLGGAGTPSACNDAAYRDKLLQTVATYVNDQGFAELARRYAHNLANARFLWRNRVGAEAVEVRINHIRQGEVARAWRFDALAIGLRDFKADAELDALAELIASGLSGSGHVLLEVVAFARIGDGQEVFPSQELILDKGDKKGQKSKTLYSVRDAAAIHSQKIGNALRTIDTWYPDEDGLGPIAVEPYGSVTSQGKAYRQPKQKLDFYTLLDNWVLRDEAPAVEQQHYVIANLIRGGVFGEAEEK

How the values were obtained:
[1] = target: T1, Csy complex (crRNA-guided surveillance complex) (Pseudomonas aeruginosa, UniProt Q02ML9;Q02MM0;Q02MM1;Q02MM2 1-434;1-327;1-342;1-187); test: EMSA
T1 sequence 1: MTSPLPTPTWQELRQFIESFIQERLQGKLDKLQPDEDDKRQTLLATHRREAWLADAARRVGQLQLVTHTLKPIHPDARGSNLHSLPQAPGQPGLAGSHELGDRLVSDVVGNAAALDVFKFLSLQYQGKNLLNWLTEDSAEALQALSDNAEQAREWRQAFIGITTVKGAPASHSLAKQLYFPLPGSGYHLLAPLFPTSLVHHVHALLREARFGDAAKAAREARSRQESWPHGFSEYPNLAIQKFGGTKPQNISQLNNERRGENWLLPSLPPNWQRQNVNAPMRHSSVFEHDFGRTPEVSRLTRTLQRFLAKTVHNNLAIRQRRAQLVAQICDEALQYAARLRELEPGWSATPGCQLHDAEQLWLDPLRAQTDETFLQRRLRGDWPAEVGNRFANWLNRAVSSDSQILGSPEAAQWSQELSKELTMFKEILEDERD
T1 sequence 2: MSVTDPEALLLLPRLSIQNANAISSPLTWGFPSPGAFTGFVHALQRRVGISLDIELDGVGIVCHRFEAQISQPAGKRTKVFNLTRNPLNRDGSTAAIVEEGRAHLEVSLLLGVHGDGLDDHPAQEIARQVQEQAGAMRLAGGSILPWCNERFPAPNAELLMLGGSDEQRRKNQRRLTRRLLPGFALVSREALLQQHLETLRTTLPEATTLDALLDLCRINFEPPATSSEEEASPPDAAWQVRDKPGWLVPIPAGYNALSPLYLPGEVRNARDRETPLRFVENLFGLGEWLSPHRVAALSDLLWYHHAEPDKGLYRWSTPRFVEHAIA
T1 sequence 3: B4 chain
T1 sequence 4: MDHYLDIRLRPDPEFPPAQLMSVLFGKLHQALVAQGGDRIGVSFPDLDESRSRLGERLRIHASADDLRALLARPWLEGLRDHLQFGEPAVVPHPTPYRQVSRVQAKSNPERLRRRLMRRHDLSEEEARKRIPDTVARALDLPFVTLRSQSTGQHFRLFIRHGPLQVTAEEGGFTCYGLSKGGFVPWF

[2] = target: T2, CsyRE3 (Pseudomonas aeruginosa, UniProt Q02ML9;Q02MM0;Q02MM1;Q02MM2 1-434;1-327;1-342;1-187, R207E;R219E;R258E); test: EMSA
T2 sequence 1: T1 sequence 1 with R207E, R219E, R258E
T2 sequence 2: T1 sequence 2
T2 sequence 3: B4 chain
T2 sequence 4: T1 sequence 4

[3] = target: T1, Csy complex (crRNA-guided surveillance …); test: competition
[4] = target: the molecule itself; test: cryo-EM structure

| Binder | binding result [1] | binding result [2] | binding result [3] | stoichiometry N [4] |
| --- | --- | --- | --- | --- |
| B1 | no binding | no binding | – | – |
| B2 | – | – | no binding | – |
| B3 | binds | no binding | – | – |
| B4 | – | – | – | 6 |
